Test results as given in patent US20250075006A1 (SHANDONG SIMCERE BIOPHARMACEUTICAL, published 2025).
Where two headings read alike, the source gives them in different places.

T1: Cyno GUCY2C ECD (his-tagged cynomolgus monkey GUCY2C protein extracellular domain fusion protein) (cynomolgus monkey, UniProt P25092 24-430 (human entry))
T1 construct: also called monkey GUCY2C-his; monkey GUCY2C-His
T1 chain: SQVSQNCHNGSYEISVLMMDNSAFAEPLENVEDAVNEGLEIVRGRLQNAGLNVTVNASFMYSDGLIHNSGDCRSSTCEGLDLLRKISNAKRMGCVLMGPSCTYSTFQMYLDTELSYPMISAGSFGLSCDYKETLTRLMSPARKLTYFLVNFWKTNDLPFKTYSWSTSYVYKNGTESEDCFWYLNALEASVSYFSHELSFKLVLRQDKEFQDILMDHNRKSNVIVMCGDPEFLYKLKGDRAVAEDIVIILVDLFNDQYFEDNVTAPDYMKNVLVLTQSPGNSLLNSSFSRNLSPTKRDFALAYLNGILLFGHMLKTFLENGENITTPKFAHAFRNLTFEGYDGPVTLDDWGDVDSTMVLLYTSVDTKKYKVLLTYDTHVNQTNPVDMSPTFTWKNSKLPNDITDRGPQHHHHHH

B1: 5F9-hIgG1 (antibody, V domains shown)
VH: QVQLQQWGAGLLKPSETLSLTCAVFGGSFSGYYWSWIRQPPGKGLEWIGEINHRGNTNDNPSLKSRVTISVDTSKNQFALKLSSVTAADTAVYYCARERGYTYGNFDHWGQGTLVTVSS
VL: EIVMTQSPATLSVSPGERATLSCRASQSVSRNLAWYQQKPGQAPRLLIYGASTRATGIPARFSGSGSGTEFTLTIGSLQSEDFAVYYCQQYKTWPRTFGQGTNVEIKR
notes: also called positive control antibody
B2: PF1608-hIgG1 (antibody, V domains shown)
VH: EVQLVESGGGLVQPGGSLRLSCAASGFTFSSYWMHWVRQAPGKGLEWIGEIKPSNELTNVHEKFKDRFTISVDKAKNSAYLQMNSLRAEDTAVYYCTRTITTTEGYWFFDVWGQGTLVTVSS
VL: DIQLTQSPSSLSASVGDRVTITCRASESVDYYGSSLLQWYQQKPGKAPKLLIYAASKLASGVPSRFSGSGSGTDFTLTISSLQPEDFATYYCQQTRKAYTFGQGTKLEIKR
notes: also called PF1608-hlgG1; positive control antibody

How the values were obtained:
[1] = target: T2, human GUCY2C protein, full length, on cells (human, UniProt P25092 24-1073); assay: FACS on 293T-hGUCY2C cells, MFI
T2 construct: whole, on cells; also called endogenous tumor cells HT55
Method: (§1) Then a complete medium was added to stop the digestion, and the cells were blown into a single cell suspension. After counting, the cells were centrifuged, and the cell pellet was resuspended to 2×10⁶ cells/mL in an FACS buffer (PBS+2% fetal bovine serum), and added to a 96-well FACS reaction plate at 100 μL/well. The plate was centrifuged, and the supernatant was discarded. An antibody sample to be tested (diluted in a 3-fold gradient from a starting concentration of 100 nM) was added at 50 μL/well and uniformly mixed with the cells, and the mixture was incubated at 4° C. for 1 h. […] The results were tested and analyzed by FACS (FACS Canto™, purchased from BD) after the plate was centrifuged and washed 3 times with a PBS buffer and resuspended with 100 μL of PBS. Data analysis was performed by software (FlowJo) to obtain the mean fluorescence intensity (MFI) of the cells. Then, analysis was performed by software (GraphPad Prism8), data were fitted, and EC50 values were calculated.

[2] = target: T2, human GUCY2C protein, full length, on …; assay: FACS on 293T-hGUCY2C cells, MFI; remark: listed apart in the source
Method: as §1, with “5-fold” for “3-fold”, “calculated. As shown in A-C in FIG. 14, PF1608-hIgG1 binds strongly to GUCY2C at the protein level, but weakly at the cellular level. The humanized antibodies of the present application are all capable of binding effectively to recombinant cells expressing human GUCY2C protein and substantially maintain the equivalent binding ability of the recombinant antibodies.” for “calculated.”

[3] = target: T2, human GUCY2C protein, full length, on …; assay: FACS on 293T-hGUCY2C cells, MFI; remark: listed apart in the source
Method: as §1, with “5-fold” for “3-fold”, “calculated. As shown in A-C in FIG. 14, PF1608-hIgG1 binds strongly to GUCY2C at the protein level, but weakly at the cellular level. The humanized antibodies of the present application are all capable of binding effectively to recombinant cells expressing human GUCY2C protein and substantially maintain the equivalent binding ability of the recombinant antibodies.” for “calculated.”

[4] = target: T2, human GUCY2C protein, full length, on …; assay: FACS on 293T-hGUCY2C cells, MFI; remark: listed apart in the source
Method: as §1, with “5-fold” for “3-fold”, “calculated. As shown in A-C in FIG. 14, PF1608-hIgG1 binds strongly to GUCY2C at the protein level, but weakly at the cellular level. The humanized antibodies of the present application are all capable of binding effectively to recombinant cells expressing human GUCY2C protein and substantially maintain the equivalent binding ability of the recombinant antibodies.” for “calculated.”

[5] = target: T1, Cyno GUCY2C ECD (his-tagged cynomolgus …); assay: ELISA, plate coated with monkey GUCY2C-his, OD450
Method: A human GUCY2C-his protein was diluted with PBS to a final concentration of 2 μg/mL and then added to a 96-well ELISA plate at 50 μL/well. The plate was sealed with a plastic film and incubated at 4° C. overnight. The next day, the plate was washed 2 times with PBST, and a blocking buffer [PBS+2% (w/w) BSA] was added for blocking at room temperature for 2 h. The blocking buffer was discarded, and the recombinant antibody and positive and negative control antibody with a starting concentration of 100 nM serially diluted by 3 folds were added at 50 μL/well. After incubation at 37° C. for 1 h, the plate was washed 3 times with PBST. A horseradish peroxidase (HRP)—labeled secondary antibody (purchased from Merck, Cat. No. AP113P) was added for incubation at 37° C. for 1 h, and the plate was washed 5 times with PBST. A TMB substrate was added at 50 μL/well for incubation at room temperature for 10 min, and then a stop solution (1.0 M HCl) was added at 50 μL/well. The OD450 nm values were read by an ELISA plate reader (Multimode Plate Reader, EnSight, purchased from Perkin Elmer).
The monkey GUCY2C-his and murine GUCY2C-his proteins were subjected to ELISA and data analysis according to the method described in Example 4.2. The recombinant antibodies Lab306-huFc, Lab322-huFc, and Lab323-huFc have a relatively good binding activity with the monkey GUCY2C-his protein. […]

[6] = target: T2, human GUCY2C protein, full length, on …; assay: FACS on HT55 tumor cells (endogenous GUCY2C), MFI
Method: as §1
The binding of the recombinant antibody to the endogenous tumor cell HT55 was detected in the same manner.

[7] = target: T1, Cyno GUCY2C ECD (his-tagged cynomolgus …); assay: ELISA, plate coated with monkey GUCY2C-his, OD450
[8] = target: T2, human GUCY2C protein, full length, on …; assay: FACS on HT55 tumor cells (endogenous GUCY2C), MFI; remark: listed apart in the source
[9] = target: T2, human GUCY2C protein, full length, on …; assay: FACS on HT55 tumor cells (endogenous GUCY2C), MFI; remark: listed apart in the source

T2 sequence (P25092 24-1073): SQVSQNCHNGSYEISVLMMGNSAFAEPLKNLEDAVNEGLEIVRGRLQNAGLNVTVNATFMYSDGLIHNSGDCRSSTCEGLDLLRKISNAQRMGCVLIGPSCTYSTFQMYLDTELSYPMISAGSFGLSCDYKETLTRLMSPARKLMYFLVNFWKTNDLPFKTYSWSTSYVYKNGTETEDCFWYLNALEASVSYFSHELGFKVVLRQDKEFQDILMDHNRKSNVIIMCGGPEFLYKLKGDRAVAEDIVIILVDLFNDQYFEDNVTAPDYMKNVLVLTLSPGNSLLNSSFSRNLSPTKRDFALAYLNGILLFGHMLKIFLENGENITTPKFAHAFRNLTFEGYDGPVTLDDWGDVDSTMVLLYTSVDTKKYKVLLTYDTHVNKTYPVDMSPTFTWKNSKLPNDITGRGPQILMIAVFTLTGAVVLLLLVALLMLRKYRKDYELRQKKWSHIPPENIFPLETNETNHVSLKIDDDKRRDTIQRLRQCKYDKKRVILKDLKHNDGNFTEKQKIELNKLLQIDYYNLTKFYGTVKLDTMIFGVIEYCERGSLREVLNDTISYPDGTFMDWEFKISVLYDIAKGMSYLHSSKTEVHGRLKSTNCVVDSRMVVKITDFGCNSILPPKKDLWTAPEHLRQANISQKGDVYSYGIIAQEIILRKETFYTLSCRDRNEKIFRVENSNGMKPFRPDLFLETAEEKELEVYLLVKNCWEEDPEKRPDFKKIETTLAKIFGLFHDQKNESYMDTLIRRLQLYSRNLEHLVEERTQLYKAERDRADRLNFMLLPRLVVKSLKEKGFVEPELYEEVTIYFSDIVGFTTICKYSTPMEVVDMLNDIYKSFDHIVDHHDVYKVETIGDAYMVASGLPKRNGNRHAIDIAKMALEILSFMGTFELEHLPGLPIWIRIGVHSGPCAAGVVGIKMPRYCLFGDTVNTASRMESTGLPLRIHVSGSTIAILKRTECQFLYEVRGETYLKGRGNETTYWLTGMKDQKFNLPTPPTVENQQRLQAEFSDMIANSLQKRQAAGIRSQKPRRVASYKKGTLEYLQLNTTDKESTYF

Binder	EC50 (read off the curve) [1]	EC50 (read off the curve) [2]	EC50 (read off the curve) [3]	EC50 (read off the curve) [4]	EC50 (read off the curve) [5]	EC50 (read off the curve) [6]	EC50 (read off the curve) [7]	EC50 (read off the curve) [8]	EC50 (read off the curve) [9]
B1	~900 pM	~1000 pM	~1000 pM	~1000 pM	~80 pM	~300 pM	~30 pM	~300 pM	~300 pM
B2					~80 pM		~50 pM		
